Measurements taken from PMC2679210, “Dpr Acts as a Molecular Switch, Inhibiting Wnt Signaling when Unphosphorylated, but Promoting Wnt Signaling when Phosphorylated by Casein Kinase Iδ/ε” (PLoS ONE, 2009).

Target: T1, Myc-tagged XDpr1a phosphorylated by CKIδ (Xenopus, UniProt Q8QG92 1-824, phosphorylated by CKIδ; sites not told)
T1 construct: Xenopus Dapper1a (XDpr1a), as m1; also called phosphorylated XDpr1a; XDpr1a in the presence of CKIδ
T1 sequence (looked up): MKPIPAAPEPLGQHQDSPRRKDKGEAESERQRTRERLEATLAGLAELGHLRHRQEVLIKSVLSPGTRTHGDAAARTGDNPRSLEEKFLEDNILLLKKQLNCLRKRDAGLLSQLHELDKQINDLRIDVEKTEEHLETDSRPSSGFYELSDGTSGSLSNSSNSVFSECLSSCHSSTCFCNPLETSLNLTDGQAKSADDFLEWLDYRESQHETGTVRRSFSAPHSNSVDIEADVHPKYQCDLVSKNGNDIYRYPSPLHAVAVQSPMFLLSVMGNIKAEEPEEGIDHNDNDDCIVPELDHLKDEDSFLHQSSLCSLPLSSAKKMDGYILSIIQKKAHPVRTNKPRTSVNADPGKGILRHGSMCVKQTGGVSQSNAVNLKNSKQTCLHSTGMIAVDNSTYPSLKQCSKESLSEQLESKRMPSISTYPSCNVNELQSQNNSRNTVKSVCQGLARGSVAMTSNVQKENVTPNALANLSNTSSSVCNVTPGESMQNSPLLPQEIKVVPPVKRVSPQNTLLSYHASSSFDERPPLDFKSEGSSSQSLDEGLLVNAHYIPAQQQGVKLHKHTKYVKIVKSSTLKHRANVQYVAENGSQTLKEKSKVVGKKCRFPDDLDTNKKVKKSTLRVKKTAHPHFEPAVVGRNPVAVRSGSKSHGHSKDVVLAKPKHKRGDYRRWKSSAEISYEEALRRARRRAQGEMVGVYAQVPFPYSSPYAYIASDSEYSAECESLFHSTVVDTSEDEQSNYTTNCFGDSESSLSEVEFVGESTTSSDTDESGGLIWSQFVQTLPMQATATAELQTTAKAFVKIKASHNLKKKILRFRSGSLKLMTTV
Experiment: co-IP; in vitro coimmunoprecipitation: [35S]methionine-labeled Myc:XDpr1a immunoprecipitated with anti-Myc antibodies and protein A agarose, 2 hours at room temperature, from a reaction containing HA-tagged XDsh in the absence or presence of CKIδ; washed three times with 50 mM Tris-HCl pH 7.4, 137 mM NaCl; SDS-PAGE, autoradiography, PhosphorImager quantitation (n = 4 trials)
Settings: partners not purified

B1: HA-tagged XDsh phosphorylated by CKIδ (natural protein, Xenopus, UniProt P51142 1-736, looked up)
chain: MAETKVIYHLDEEETPYLVKVPVPATDIRLRDFKAALGRGHAKYFFKAMDQDFGVVKEEISDDNAKLPCFNDRVVSWLASSEGSQPDSAPPAPATEVRPEPPPPVPPPIPPPPAERTSGIGDSRPPSFHPNVSGSTEQLDQDNESVISMRRDRVRRRESSEQAGVGRGVNGRTERHLSGYESSSTLLTSEIETSICDSEEDDTMSRFSSSTEQSSASRLLKRHRRRRKQRPPRLERTSSFSSVTDSTMSLNIITVTLNMEKYNFLGISIVGQSNERGDGGIYIGSIMKGGAVAADGRIEPGDMLLQVNDINFENMSNDDAVRVLRDIVHKPGPIVLTVAKCWDPSPQGYFTLPRNEPIHPIDPAAWVSHSAALSGSFPVYPGSASMSSMTSSTSVTETELSHALPPVSLFSLSVHTDLASVVKVMASPESGLEVRDRMWLKITIPNAFLGSDVVDWLYHHVEGFQDRREARKFASNLLKAGFIRHTVNKITFSEQCYYIFGDLTGCENYMTNLSLNDNDGSSGASDQDTLAPLPLPGASPWPLLPTFSYQYQAPHPYSTQPPAYHELSSYSYGMGSAGSQHSEGSRSSGSNRSDGGRGMQKDDRSGVAGVGGGDSKSGSGSESEYSTRSSIRRVGGGEAGPPSERSTSSRLPPHHPPSVHSYAAPGVPLSYNPMMLMMMPPPPLPPPGVCPPNSSVPPGAPPLVRDLASVPPELTATRQSFHMAMGNPSEFFVDVM
modifications: phosphorylated by CKIδ; sites not told
notes: Xenopus disheveled (XDsh), as m2; also called phosphorylated XDsh; XDsh in the presence of CKIδ
coimmunoprecipitation relative to the control without CKIδ: ~0.5 relative to no CKIδ (1.0)
